Data as given in the DeepSol protein solubility set.

Assay: soluble on expression in E. coli; label from the status in PepcDB or PDB records

Sequence | soluble on expression in E. coli
SPNNSKHKKKQQRRQQEAQKKSRAKQIETDKKNDEFLDTELDEVSPLVIDDDMTEFKNMPKVELHAHLSGSLSPETIKLIMESDETRAEEIMKKYKLEKPENMTGVFDCFPVIHAILRKPEAIRIAIRQTIKEFEEDNCVYLELRTSPKETDFMTYEDYLQVCIESFEAAKHEFPRIKTFLIVSLDRRMPFETAAHILGLIGEAQQRTNVIVGVELSGDPHLDGRRLLKLFVAARRFHGLGITIHLAEVLQNMADVEDYLNLRPDRIGHGTFLHTDPYTEYLTNKYKIPLGENLIQLHLIFLFFLEICLSSNVYSKTTTNYRNSHFNYWRKRGVPVFICTDDKGVIPGATLTEEYYKAAITFDLSTEELIGINQDALLNSFAYKYNVTDLTETFRKINNNVLD | not soluble
SPPPKAGLPLQQELASGSALVTDQNTGKVLYSRNPDLVVPIASITKLMTAMVVLDSKLPLDEVLPIAISETSEMRGVFSRVRVGSQISRRDMLLLALMSSENRAAASLAQNYPGGKNAFVKAMNAKAHALGMKNTRYVEPTGLSLHNVSTARDLTRLLVASRQYPLLSQWSTTPEKTVAFRHPNYTLGFRNTNHLINNKTWNIQLTKTGFTNEAGHCLVMRTTINRSPVNLVVLDAFGKYTHFADATRLRRWLETGQVTAIPAAAKAYRLQRDRERGLGQPVAQAVR | soluble
SQPIATQELQLGDELANKAFAATNRGDFVAAEDYWTQIIEKFPINAGAWINRGNSRVSQNKLEAALTDYNKAIELAPNLTDPYLNRGTALEGLGKWEDAIADYNYVLALDPNDAMAYNNRGNAKTGLGKWEDAISDYQKATAIAPNFAFARANYALALYETGQTDKAIREMRNIVRKYPKFADMRAALTAAYWVGGQKGEAESNWVAAYGLDTRYKDMDWVTNIRRWPPSMVAALDKFLKLN | soluble
SRWQRDLTDSTVLRNMGVALGHTLLAYDSCLKGLGKLQADPARLSEDLQNAWEVLAEPIQTVMRRYGVANPYEQLKALTRGKTGIDRTTLQQFIEQLDIPAAERDRLLQLTPWGYI | not soluble
SSALIQTPSSLLVQTNHTAKMSCEVKSISKLTSIYWLRERQDPKDKYFEFLASWSSSKGVLYGESVDKKRNIILESSDSRRPFLSIMNVKPEDSDFYFCATVGSPKMVFGTGTKLTVVDVLPTTAPTKKTTLKMKKKKQCPFPHPETQKG | soluble
SSDLEDDETPQLSAHALAALQEFYAEQKQQIEPGEDDKYNIGIIEENWQLSQFWYSQETALQLAQEAIAAVGEGGRIACVSAPSVYQKLRELCRENFSIYIFEYDKRFAMYGEEFIFYDYNNPLDLPERIAAHSFDIVIADPPYLSEECLRKTSETVKYLTRGKILLCTGAIMEEQAAELLGVKMCTFVPRHTRNLANEFRCYVNYDSGLDCGI | soluble
SSGIHVALVTGGNKGIGLAIVRDLCRLFSGDVVLTARDVTRGQAAVQQLQAEGLSPRFHQLDIDDLQSIRALRDFLRKEYGGLDVLVNNAGIAFKVADPTPFHIQAEVTMKTNFFGTRDVCTELLPLIKPQGRVVNVSSIMSVRALKSCSPELQQKFRSETITEEELVGLMNKFVEDTKKGVHQKEGWPSSAYGVTKIGVTVLSRIHARKLSEQRKGDKILLNACCPGWVRTDMAGPKATKSPEEGAETPVYLALLPPDAEGPHGQFVSEKRVEQW | soluble
SSKAIPKQDIPEIAYERFTLPNGLTVIVHEDHKAPVIAVNVWYHIGSADEPARKTGFAHLFEHLMFSGSENHKASYFQPFEKIGATGMNGTTWFDRTNYFQTVPTTALDMALWMESDRMGHLLGAIGQKELDTQRGVVKNEKRQRENVPYGRVTQNILSNLFPANHPYQHSTIGSMEDLEAASLADVKSWFQAHYGAANATLVLAGDITLAEARDKAAKYFGDIPAGPPVA | not soluble
SSLYRLFQSSKRPFASFSAPLVRFTNSRCVSAVLSRKETAPSSIYGNRVSRVSGFGALDIRSLNFSTKSSQINDAGSIDQTLMQSMELKIKEQLNAESVTVTDMSGDGRHVCINVVSSAFEGQSAVNRQRMVYKAIWEELQNVVHAVDQMTTKTPSEV | soluble
SSNAKADQASSDAQTANAKADQASNDANAARSDAQAAKDDAARANQRADNAA | soluble
SSQTGEKGKFPDAAGYVGFANLPNQVHRKSVKKGFEFTLMVVGESGLGKSTLINSLFLTDLYPERYIPGAAEKIERTVQIEASTVEIEERGVKLRLTVVDTPGYGDAINSQDCFKTIIQYIDNQFERYLHDESGLNRRHIVDNRVHCCFYFISPFGHGLKPLDVEFMKAIHSKVNIVPVIAKADTLTLKERDRLKRRILDEISEHGIRIYQLPDADSDEDEEFKDFVPNRCIWSSLQFYQMHIIAITFIDIMFVFKKAAHVISTTIIMVKLNIKCQ | soluble
SSSNSEKEWHIVPVSKDYFSIPNDLLWSFNTTNKSINVYSKCISGKAVYSFNAGKFMGNFNVKEVDGCFMDAQKIAIDKLFSMLKDGVVLKGNKINDTILIEKDGEVKLKLIRGI | soluble
SSTQYSILFKQEHAHEDAIWTAAWGRSEKDGSETIVTGSLDDLVKVWKWSDEKLELQWTLEGHQLGVVSVNISQNGAIAASSSLDAHIRLWDLETGKQIKSMDAGPVDAWTVAFSPDSKYIATGSHLGKVNIFGVESGKKEHSLDTRGKFILSIAYSPDGKYLASGAIDGIINIFDIATGKLLHTLEGHAMPIRSLTFSPDSQLLVTASDDGYIKIYDVQHANLAGTLSGHGSWVLSVAFSPDDTHFVSSSSDKSIKVWDTSSRSCVNTFFDHQDQVWSVKYNPTGSKIVSAGDDRAIHIYDCPM | soluble
SSVNYAAGLSPYADKGICGLPETFDSPEELKTKVETLAQWIRESQYMVVHSGAGISTSTGIPDFRGPNGVWTMEERGETPHFNTTFEDARPSLTHMALLQMQRTGHLKYLISQNVDGLHVRSGFPRDRLSELHGNMFVEECEKCGKQYVRDTVVGVMGLKPTGRYCDVMRSRGLRSCRGKLISSILDWEDSLPDRDLNRADEASRRADLALTLGTSLQIKPSGDLPLLTKRTGGKLVIVNLQPTKHDKHAHLRIYGYVDDVMGQLMKLLGLDVPEWAGPTLCEDSGGDLDILPYGAWKKEVKIELKIEESNHTVSKKRKRKEQHAEEGYKNGVKVEEEMKEEGKESDSHVHTHT | soluble
STARVICAGFGGQGVMSMGQLLTYAGMLEGKEVSWLPSYGPEMRGGTANCAVTVSNEPVGSPLITDDATAAILLNIPAFEKFKDDVIPGGKIIVNSSLIKEKVDRTDVDVYYIPANELAAELGNDKVANMIMLGAYLKVSDTVDIESVLEAFKKVFGPRKEKFVPLNREALQKGMDATC | not soluble
STKFPTLKRLFGEAQAAWLVKESEQAVLEIDAFCKQHHIDAQLSLKGVYYTATNHVQAGSMQPVVDELSRLGVNSWRRCKEDELHANTGSPRHLEGFHSSVAASVQPALLARGLRRVALEMGIEIFENTPMTKLDFGQPATVSTPDAQIKAKQVVLALNAWMVEHFTQFKNSIVVVSSDMVITKPLGESLRKTGWQAGTSVLDSRIFVHYYRDTPDGRLMLGKGGNQFSFNNQVDVMFNKPTRYQNLLRKSFDKLFPSLKEAEFEYSWTGGSDRSTSGFPFFGKLNEQRNVFYGFGYSGNGVAQTRMGGKILSSMVLGLDNEWTRSGLAKGPLGHFPPEPFRWIGAMTVRNAVRRKEEAEDCGQKPFIWDKWLAKLAGPAGKADKLD | not soluble
STLEIAGLVRKNLVQFGVGEKNGSVRWVMNALGVKDDWLLVPSHAYKFEKDYEMMEFYFNRGGTYYSISAGNVVIQSLDVGFQDVVLMKVPTIPKFRDITQHFIKKGDVPRALNRLATLVTTVNGTPMLISEGPLKMEEKATYVHKKNDGTTVDLTVDQAWRGKGEGLPGMCGGALVSSNQSIQNAILGIHVAGGNSILVAKLVTQEMFQNIDKKIESQ | soluble
STSTFQTRRRRLKKVEEEENAATLQLGQEFQLKQINHQGEEEELIALNLSEARLVIKEALVERRRAFKRSQKKTREKELESIDVLLEQTTGGNNKDLKNTMQYLTNFSRFRDQETVGAVIQLLKSTGLHPFEVAQLGSLACDTADEAKTLIPSLNNKISDDELERILKELSNLETLY | soluble
STVLIVSQEHQKIKTYINTVADRGVTEIPVKGGYSGTNQIMLMTTIAGYEFAKLQEAIAEIDETAFITVTPTSQASGRGFSLQKNHGRLDEDILMPM | not soluble
SYSVGQVAGFAGVTVRTLHHYDDIGLLVPSERSHAGHRRYSDADLDRLQQILFYRELGFPLDEVAALLDDPAADPRAHLRRQHELLSARIGKLQKMAAAVEQAMEARS | soluble
SYVQEHRLWGLMDKPHSAPCLMSLSLSFLICNKGRNAIRVQQSTDERMDAMLLWQCPTQGTRKNHESNSSLHHVPNWIFHSTIIPPNKGSKRCLRKVDWLLPRAGGVGGKRGVTADGDRVSF | soluble
TARELLDADRGRDSMVAAAYHSGTLSGKTVTEAARQGDVFAIEVFDDFAEWMGRALSIVCDVLDPGQIVIGGGLSTSSDLFLEKATQHMAQQIVGAGYRPLPTVVCAELGGDAGMIGVSDLARRRV | not soluble
TARKCLLEKVEVITGEEAESNVLQMQCKLFVFDKTSQSWVERGRGLLRLNDMASTDDGTLQSRLVMRTQGSLRLILNTKLWAQMQIDKASEKSIHITAMDTEDQGVKVFLISASSKDTGQLYAALHHRILALRSRVE | soluble
TASIGAAAILGAPIMHDFCHISLSDLMTPWEVIEKRLRLAAEADFVICLYNPRSKGRSEHLSKAFKIMGEFKGGDTPVGVVKDVGREKEEKFVCTFENMDFEKVDMTTMVIIGNKSTY | not soluble
TDKEEFALYCEAKNDKVRKRLGIKGGFYWTTAKKLSVAISRCITAMDDNDYDEDDFKKPVRVNLPVVDDLPPEGVFDTEFCNRYEKGGKDGITMTFIGPSPSVQDKPASTDNTNINGEAMTEIEESMLLPVSGQELPIRWLAQHGSEKPVTHVSRDELQALHIARAEELPAVTALAISHKTSLLDSL | not soluble
TDPDFLIRLATNLKEEKSKRLEAEQKIEAQRPKVLFADAVSDTEGTILIRDLAKLIQQNGVDIGEKRLFEWLRQNGYLISRRGTDYNRPTQKSMELGLFKIKETAIMRSSGAHTAITAKVTGKGQLYFVNKFLEQSLV | not soluble
TDQFGMIGLLTFIRAAETDPGMVHLALGSDLTTLGLNLNSPENLYPKFASPWASSPCRPQDIDFHVPSEYLTNIHIRDKLAAIKLGRYGEDLLFYLYYMNGGDVLQLLAAVELFNRDWRYHKEERVWITRAPGMEPTMKTNTYERGTYYFFDCLNWRKVAKEFHLEYDKLEERPHLPSTFNYNPAQQAF | soluble
TEETNVLVLCAGGGTSGLLANALNKAAEEYGAPVKAAAGSYGAHREILDQYQLVILAPQVASNYEDMKAETDKLGIKLAKTEGAQYIGLTRDGKGALAFVEEQFKD | not soluble
